Residue numbers refer to the chain shown, from its start.
B1: 436H2C12 (antibody, V domains shown)
VH: QVQLQQSGPELVKPGASVKLSCKASGYTFSDYTIHWVKQSPGQGLEWIGWIYPGRGNTKYNDKFKGKATMTADKSSSTAYMQLSSLTSEESAVYFCARDYRRYYAMDYWGQGTSVTVSS
VL: NIVLTQSPASLAVSLGQRATISCRASESVDNYGNSFMHWYQQKPGQPPKLLISLASNLESGVPARFSGSGSRTDFTLTIDPVEADDAATYYCQQNNEDPRTFGGGTKLEIK
B2: 444G1A10 (antibody, V domains shown)
VH: RVQLKESGPGLVAPSQSLFITCTVSGFSLTTYEINWVRQSPGKGLEWLGVIWTGGTTKYNSAFISRLSITKDNSKSLVFLKMSSLQTDDTAIYYCVREGRRYYAMDYWGQGTSVTVSS
VL: B1 VL with N31S, H38F, Y40F, P47A, S53F, A55T, P81R, N95S
B3: 441E6F2 (antibody, V domains shown)
VH: B2 VH
VL: B1 VL with A25T, N31S, H38F, Y40F, P47A, S53F, A55T, N95S
B4: 440E9D12 (antibody, V domains shown)
VH: QVRLRESGPGLVAPSQNLFITCTVSGFSLTDYEINWVRQPPGKNLEWLGVIWTGGGTKYNSVLISRLNISKDNSKRQVFFKMTSLQTDDTAIYYCVREGRRYYAMDYWGQGTSVTVSS
VL: B1 VL with A12P, I21M, E27K, N31S, N34T, Q42H, K43R, A64G, A84P, K107T
B5: 450A2A7 (antibody, V domains shown)
VH: B1 VH with S30T, T33S, R55S, G56D, T69S, S77R, A79V, Q82H
VL: IVLTQSSASLAVSLGQRATISCRASESVDRYGNSLMHWYQQKPGQPPKLLIYIASNLESGVPARFSGSGSRTDFTLTIDPVEADDAATYYCQQNNEDPRTFGGGTKLEIK
B6: 606H7F8 (antibody, V domains shown)
VH: VQLVESGGGLVKPGGSLKLSCAASGFTFSSYDMSWVRQTPEKRLEWVAAINSYGVNTYYPDTVKDRFTISRDNAKNTLYLQMSSLRSEDTALYYCARLLIGPYYYAMDYWGQGTSVTVSS
VL: DIQMTQSPASLSASVGETVTITCRASGNIHNYLAWYQQKQGKSPQLLVYNAKTLADGVPSRFSGSGSGTQFSLKINSLQPEDFGSYYCQHFWSTPYTFGGGTKLEIK
B7: 319B8A12 (antibody, V domains shown)
VH: KVTLKESGPGILQPSQTLSLTCSFSGFSLRTFGMGVGWIRQPSGKGLEWLAHIWWNDEKYYNPDLKSRLTVSKDSSKNQVFLTIANVDTSDTAPYYCTRVGPSISTVAEGFPYWGQGTLVTVSA
VL: DIVMTQSQKFVSTRVGDRVSITCKASQNVGAAVVWYQQKSGQPPKLLIRSASNRYIGVPDRFTGSGSGTDFTLTVSDVQSGDLADYFCQQYSNYPLTFGAGTKLELTR
B8: 27I21-3C7 (antibody, V domains shown)
VH: QVQLQQSGPELVRPGTSVKISCKAPGYIFTSHWMQWVRQRPGQGLEWIGDIFPGSGTTDYNEKFKDKATVTVDRSSSSAYMQFNSLTSEDSAVYFCASGAFDYWGQGTTLTVSS
VL: DIQMTQSPSSLSASLGERVSLTCRASQDIGNRLNWLQQAPDGTIKRLIYATSSLDSGVPKRFSGSRSGSDYSLTISSLESEDFVDYYCLQYASYPFTFGTGTKLEIK
B9: 560H2A7 (antibody, V domains shown)
VH: EVKLVESGGGLVQPGGSLSLSCAGSGFTFSDYYMSWVRQPPGKALEWLALIRNKAPGYTTEYSASVKGRFTISRDNSQSILYLQMNALRPEDSATYYCARVLRRADCLDYWGQGTALTVSS
VL: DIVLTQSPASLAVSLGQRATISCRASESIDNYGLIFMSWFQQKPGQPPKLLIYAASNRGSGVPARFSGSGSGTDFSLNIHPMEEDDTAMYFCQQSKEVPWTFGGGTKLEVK
B10: 537G7A6 (antibody, V domains shown)
VH: QVQLKESGPGLVAPSQSLSITCTVSGFSLSRYSVHWIRQSPGKGLEWLGMIWGGGNTDYNSGLKSRLSISKDNSKSQVFLKMNSLENDDTAMYYCASPSLYYYDVAWFPYWGQGTLVTVSA
VL: DIVLTQSPASLAVSVGQRATVSCRVSESVDRYADSFMHWYQQKPGQPPKLLIYLASNLESGVPARFSGSGSRTDFTLTIDPVEADDAATYYCQQNKEDPYTFGGGTKLELK
B11: 435A6B3 (antibody, V domains shown)
VH: EVQLQQSGPELVKPGASMKMSCKASGYTFTSYVMHWMKQKPGQGLEWIGYLNPNNDGTKYNEKFKGKATLTSDKSSSTAYMELSSLTSEDSAVYYCARGDYSNYFYWYFDVWGAGTTVSVSS
VL: DIKMTPSPSSMYASLGERVTITCKASQDINRYLSWFQQKPGKSPKTLIYRANRLVDGVPSRFSGSGSGQDYSLTISSLEYEDMGIYYCLQYDEFPYTFGGGTKLEIK
B12: 443C11A12 (antibody, V domains shown)
VH: B11 VH with M18V, K23T, M34I, N52H, P53R, G66V, K74E, S77N
VL: B11 VL with R31S, F98S
B13: 320F9C5 (antibody, V domains shown)
VH: QVTLKESGPGILQSSQTLSLTCSFSGFSLRTFGMGVGWIRQPSGKGLEWLAHIWWNDDKSSHPALKSRLTISKDTSKNQVFLKIANVDTAETATYYCVRIGPSITTVAEGFAYWGQGTLVTVSA
VL: DIVMTQSQKFMSTTVGDRVSITCKASQNVGSVVAWYQQRPGQSPTLLIYSASNRYTGVPDRFTGSGSGTDFTLTISNMQSEDLADYFCQQYSSYPLTFGAGTKLELK
B14: 436H6A9 (antibody, V domains shown)
VH: QLQQSGPELVKPGASVKISCKASGYTFTDNFINWVKQRPGQGLEWIGWISPGSGNTKNNEKFKGKATVTVDTSSSTAYMQLSSLTSEDSAVYFCARGIIYYYDGTYPYALDYWGQGTSVTVSS
VL: DIVLTQSPASLGVSLGQRATISCRATKGVTKSGYSYIHWYQQKPGQPPKLLIYLASNLQSGVPARFSGSGSGTDFTLNIHPVEEEDAATYYCQHSRELPLTFGAGTKLELK
B15: 551H4D6 (antibody, V domains shown)
VH: EVQLQQSGAELVRPGASVELSCTASGFNIKNDYLHWVKQRPEQGLEWIGWIDSANDKTKYAPKFQDKATITADPSSNTAYLQLSSLTSEDTAVYYCTRVGVQDGYYVRDFDYWGQGTTLTVSS
VL: DIVLTQSPASLAVSLGQRATMSCRASESVDSYGNSFIHWYQQKPGQPPRLLIYRASNLNSGIPARFSGSGSRTDFTLTISSVEADDVATYYCHQNNEDPRTFGGGTKLEIK
B16: 317H2A6 (antibody, V domains shown)
VH: QVTLKESGPGILQPSQTLSLTCSFSGFSLRTFGMGVGWIRQPSGKGLEWLAHIWWNGDKYYDPALKSRLTISKDTSENRVFLNIANVDTTDTAPYYCVRIGPSITTVAEGFAYWGQGTLVTVSA
VL: DIVMTQSQKFLSTTIGDRVSITCKASQNVGSAVVWYQQKPGQPPKLLITSASNRYSGVPDRFTGSGSGTDFTLTVSNVQSVDLADYFCQQYSNYPLTFGAGTKLELK

Assays:
[1] = molecular target: Recombinant soluble 60-mer human BAFF (His-HuBAFF 134-285) (human, UniProt Q9Y275 134-285); test: cell-based or functional assay
[2] = molecular target: Recombinant soluble trimeric human BAFF (furin-cleaved human BAFF 134-285) (human, UniProt Q9Y275 134-285); test: cell-based or functional assay

Soluble 60-mer huBAFF (4 pM) Neutralization IC50 [1] [pM] | Soluble 60-mer huBAFF (4 pM) Neutralization IC90 [1] [pM] | Soluble trimeric huBAFF (50 pM) Neutralization IC50 [2] [pM] | Soluble trimeric huBAFF (50 pM) Neutralization IC90 [2] [pM] | Binder
15 | 37 | 27 | 408 | B1
12 | 35 | 25 | 284 | B2
16 | 37 | 43 | 293 | B3
11 | 31 | 31 | 259 | B4
24 | 130 | 36 | 602 | B5
12 | 44 | 29 | 378 | B6
8 | 24 | 91 | 331 | B7
11 | 33 | 55 | 326 | B8
13 | 30 | 35 | 324 | B9
13 | 39 | 28 | 329 | B10
10 | 26 | 23 | 294 | B11
13 | 30 | 33 | 309 | B12
10 | 24 | 110 | 3110 | B13
10 | 27 | 26 | 266 | B14
234 | 1980 | 110 | 257 | B15
4 | 13 | 97 | 327 | B16
